Reference: PMC7379572

Key:
Experiment in all cases: EMSA
Conditions in all cases: EMSA: 0.25 pmol 3'-biotin DNA, 25°C 2 h, LightShift Chemiluminescent EMSA kit buffer (composition and pH not stated), 6% DNA retardation gel, 0.5x TBE
[1] = target: T1, XisF5 (Pseudomonas aeruginosa PA14) (UniProt A0A0H2Z817)
T1 sequence: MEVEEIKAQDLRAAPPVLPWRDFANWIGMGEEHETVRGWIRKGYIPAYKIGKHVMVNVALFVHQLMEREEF

[2] = tested on: T2, XisF4 (Pseudomonas aeruginosa PAO1), ORF:74e9b1d3
T2 sequence: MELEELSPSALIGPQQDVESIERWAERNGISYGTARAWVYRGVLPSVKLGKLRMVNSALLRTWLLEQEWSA

[3] = tested on: T3, Pf4r (Pseudomonas aeruginosa PAO1), ORF:4ff4b857
T3 sequence: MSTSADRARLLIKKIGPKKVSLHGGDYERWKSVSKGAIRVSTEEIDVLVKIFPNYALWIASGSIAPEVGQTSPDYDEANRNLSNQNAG

Sequence	binding [1]	binding [2]	binding [3]
CATTTGTCGCCGGAGTACCTGCGGGACGCTATTCGACTCAACCCGCTGGCGGATTTCGACAGTTCTTCGACACTTGTCGAGACGTCCTAGATTTTTCCTTTGCATATCAATAAGTTATGAGCGCTGATTCGGCTTTGCCGA (double strand) [Pf5 attL]	binds		
TCGATTGGGAATTCCTCGCCCCGGTGGCGATGGGCTGGGCGCTGCATCACTGGTGGACGGTGATGACGGCGCTAGCGGCGGTAGGGGTGCCGCCATGAGGGGCGGGCCGCGCCGCCGGCCGGGAGCGCAAGGCATGAGCGATAGGCCGAAGGCGCGGCCGACGCCCCTGTAACACGTCAGATAAGCCACCTATTGCGGTTTCAATTCGTACCAATTTGGATCGTTAAAG (double strand) [P4 (PA0727 promoter)]		binds	
TTCGCCGGGGTGATCGACACCAGCGCGGTGGAATCGGCGATCACCGATGGCCAGGGCGATATGAAGGCCATTGGCGGCTACATCGTCGGCGCCCTGGTGATCCTGGCCGTTGCCGGCCTGATCTACAGCATGTTGCGCAAGGCGTAACGGGTGCTCTGGTCGGTGTGGTTGGGGGCGTTCTTCGCCGGCGCCTTCATCACCGGGTACCGGACCGGCGAATTCTTCTAACCGAACAGACCGAGGCGGAAGCCCCCTCCGGAGTTTCCGGCAGGGGGCTTTTTTGTGTGGGGTCTTACG (double strand) [P3 (PA0724 promoter)]		no binding	
TGCGCTCCGCCCACCGTTCGATGGACTCCACATCCTGTTGCGGCCCTATCAGGGCACTGGGGCTAAGCTCTTCCAGTTCCATGCTCATTCCGTCACTATTCGTGGCATTAGCCATACGCAGCTAGAGAAATAATTACCCTGGAGAAATTATTTCCCCAAAGCCACGTCAGGGCAACTATTTCCCCGGAATAAATTTCTATATGAGCACGTCAGCCGATAGAGCAAGACTATT (double strand) [P1 (xisF4-pf4r intergenic region)]		binds	binds
CGCGGTAAAGCCTGAAAACAGAAAGCCCCTGGCACTGGTTGGTGTCAGGGGCTTTTGCATTGGGATCTGGAGCGGGCGAAGGGAATCGAACCCTCGTCATGAGCTTGGGAAGCTCAGGTAATGCCATTATACGACGCCCGCTCGGACGGCTTTTGCGGCCAGGGCGCCTTTTTACCAGATGCGCGGC (double strand) [Pf4 attB]		no binding	
